This assay concerns the target T1, IVTT-hMSH4 (Homo sapiens, UniProt O15457).
T1 construct: made in house; host or cells: in vitro transcription/translation, TNT coupled reticulocyte lysate (Promega), insert in pCR 2.1
T1 sequence (O15457 1-936): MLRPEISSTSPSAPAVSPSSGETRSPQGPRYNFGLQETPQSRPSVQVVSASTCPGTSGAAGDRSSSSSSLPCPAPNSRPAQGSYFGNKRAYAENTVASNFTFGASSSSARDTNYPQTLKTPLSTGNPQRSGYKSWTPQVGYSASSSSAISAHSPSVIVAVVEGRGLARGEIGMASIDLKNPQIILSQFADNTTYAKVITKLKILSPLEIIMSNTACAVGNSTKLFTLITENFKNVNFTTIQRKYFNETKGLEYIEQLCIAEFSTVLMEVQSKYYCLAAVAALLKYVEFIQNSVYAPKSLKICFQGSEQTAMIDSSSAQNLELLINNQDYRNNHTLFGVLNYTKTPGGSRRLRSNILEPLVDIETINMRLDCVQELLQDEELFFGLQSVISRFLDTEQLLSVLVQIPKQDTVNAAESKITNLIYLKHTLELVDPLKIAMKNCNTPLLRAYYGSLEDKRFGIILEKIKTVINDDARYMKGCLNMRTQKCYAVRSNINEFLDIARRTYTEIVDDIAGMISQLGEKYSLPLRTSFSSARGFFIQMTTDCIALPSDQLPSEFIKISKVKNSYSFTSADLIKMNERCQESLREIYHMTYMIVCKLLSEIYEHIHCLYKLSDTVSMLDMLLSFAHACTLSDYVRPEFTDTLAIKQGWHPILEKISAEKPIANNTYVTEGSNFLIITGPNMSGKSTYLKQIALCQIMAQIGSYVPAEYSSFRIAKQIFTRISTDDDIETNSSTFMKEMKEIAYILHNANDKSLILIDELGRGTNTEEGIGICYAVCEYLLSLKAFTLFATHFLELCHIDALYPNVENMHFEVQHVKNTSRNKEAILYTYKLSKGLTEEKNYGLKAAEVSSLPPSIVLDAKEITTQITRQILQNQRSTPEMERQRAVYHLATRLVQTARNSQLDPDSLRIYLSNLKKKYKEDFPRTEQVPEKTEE
Put plainly: GST fusion protein interaction assay. It is filed as binding. The conditions noted are these: GST fusion protein as bait. Here is the method:
500 microliters taken from a 5 milliliter overnight starter culture of cells which expressed an hMSH2-, hMSH3-, hMSH5-, or hMSH6-pGEX-fusion protein with (or non-fused pGEX as a negative control) was inoculated into 50 milliliters of Luria broth which contained 50 micrograms per milliliter ampicillin, and this culture was grown until the optical density at 600 nanometers was about 0.5. Protein expression was induced by addition of 0.1 millimolar (final concentration) IPTG for 2 hours at 30° C. Cells were pelleted and resuspended in 750 microliters of phosphate buffered saline containing protease inhibitors. A 10 minute digestion on ice using 1 milligram per milliliter lysozyme was then performed. After the addition of 0.2% (v/v) Triton X-100 and 1 millimolar dithiothreitol (final concentrations), the lysate was snap-frozen in liquid nitrogen and thawed twice. DNaseI (200 units per milliliter; Boehringer Mannheim, Germany) digestion was performed using the thawed lysate for 30 minutes on ice, after which cell debris was removed by centrifugation at 14,000 rpm at 4° C. for 30 minutes in a benchtop microfuge. […]

B1: hMSH5: human MutS homolog, putative 834-amino-acid protein encoded by clone b29 (SEQ ID NO: 29) (protein)
chain: MASLGANPRRTPQGPRPGAASSGFPSPAPVPGPREAEEEEVEEEEELAEIHLCVLWNSGYLGIAYYDTSDSTIHFMPDAPDHESLKLLQRVLDEINPQSVVTSAKQDENMTRFLGKLASQEHREPKRPEIIFLPSVDFGLEISKQRLLSGNYSFIPDAMTATEKILFLSSIIPFDCLLTVRALGGLLKFLGRRRIGVELEDYNVSVPILGFKKFMLTHLVNIDQDTYSVLQIFKSESHPSVYKVASGLKEGLSLFGILNRCHCKWGEKLLRLWFTRPTHDLGELSSRLDVIQFFLLPQNLDMAQMLHRLLGHIKNVPLILKRMKLSHTKVSDWQVLYKTVYSALGLRDACRSLPQSIQLFRDIAQEFSDDLHHIASLIGKVVDFEGSLAENRFTVLPNIDPEIDEKKRRLMGLPSFLTEVARKELENLDSRIPSCSVIYIPLIGFLLSIPRLPSMVEASDFEINGLDFMFLSEEKLHYRSARTKELDALLGDLHCEIRDQETLLMYQLQCQVLARAAVLTRVLDLASRLDVLLALASAARDYGYSRPRYSPQVLGVRIQNGRHPLMELCARTFVPNSTECGGDKGRVKVITGPNSSGKSIYLKQVGLITFMALVGSFVPAEEAEIGAVDAIFTRIHSCESISLGLSTFMIDLNQVAKAVNNATAQSLVLIDEFGKGTNTVDGLALLAAVLRHWLARGPTCPHIFVATNFLSLVQLQLLPQGPLVQYLTMETCEDGNDLVFFYQVCEGVAKASHASHTAAQAGLPDKLVARGKEVSDLIRSGKPIKPVKDLLKKNQMENCQTLVDKFMKLDLEDPNLDLNVFMSQEVLPAATSIL
modifications: left off: a dimerising Fc or GST; large carriers; small tags and cut ends
On to B1, for which the “interaction with IVTT-hMSH4” value was “significant interaction”.
